Target: T1, beta-catenin (Homo sapiens, UniProt P35222)
T1 construct: made in house; host or cells: E. coli BL21 (DE3) pLysS
T1 sequence (P35222 134-665): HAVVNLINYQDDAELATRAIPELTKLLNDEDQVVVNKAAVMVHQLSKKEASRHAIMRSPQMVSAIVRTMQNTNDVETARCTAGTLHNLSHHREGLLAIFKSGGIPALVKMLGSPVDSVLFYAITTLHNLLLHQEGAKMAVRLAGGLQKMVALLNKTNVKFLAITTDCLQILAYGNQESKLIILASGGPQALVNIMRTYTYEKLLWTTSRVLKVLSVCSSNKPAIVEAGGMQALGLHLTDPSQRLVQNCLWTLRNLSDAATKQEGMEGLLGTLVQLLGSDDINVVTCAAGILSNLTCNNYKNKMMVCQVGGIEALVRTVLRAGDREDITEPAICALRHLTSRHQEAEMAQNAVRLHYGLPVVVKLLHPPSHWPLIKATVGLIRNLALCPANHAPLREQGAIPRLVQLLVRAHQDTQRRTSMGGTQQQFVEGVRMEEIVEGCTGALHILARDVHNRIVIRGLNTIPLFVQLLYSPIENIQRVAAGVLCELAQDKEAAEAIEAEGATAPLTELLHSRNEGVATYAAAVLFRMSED
Experiment: Phage Library Screening with NGS, beta-catenin
Type: binding
Settings: for Target Concentration 10 (phage screen NGS readout): beta-catenin target concentration 10; for Target Concentration 10 (phage screen NGS readout) / Target Concentration 30 (phage screen NGS readout) / Target Concentration 100 (phage screen NGS readout) / Target Concentration 300 (phage screen NGS readout): no competitor; for Target Concentration 30 (phage screen NGS readout): beta-catenin target concentration 30; for Target Concentration 100 (phage screen NGS readout): beta-catenin target concentration 100; for Target Concentration 300 (phage screen NGS readout): beta-catenin target concentration 300; for Target Concentration 1000 (phage screen NGS readout): beta-catenin target concentration 1000

Row | Sequence | Target Concentration BLANK (phage screen NGS readout) (first column) | Target Concentration BLANK (phage screen NGS readout) (fourth column) | Target Concentration BLANK (phage screen NGS readout) (second column) | Target Concentration BLANK (phage screen NGS readout) (third column) | Target Concentration 10 (phage screen NGS readout) | Target Concentration 30 (phage screen NGS readout) | Target Concentration 100 (phage screen NGS readout) | Target Concentration 300 (phage screen NGS readout) | Target Concentration 1000 (phage screen NGS readout) (first 1000 column) | Target Concentration 1000 (phage screen NGS readout) (second 1000 column)
1 | DPAIMACYQAAFWCQYN | 1 | 0 | 0 | 1 | 0 | 0 | 4 | 27 | 29 | 18
2 | DPADEDCILAAHVCRHF | 0 | 0 | 0 | 0 | 0 | 6 | 11 | 29 | 25 | 21
3 | DPAWWQCDHAALICIAE | 0 | 0 | 1 | 2 | 28 | 127 | 422 | 637 | 830 | 731
4 | DPAADDCVLAAHVCAYF | 7 | 0 | 1 | 0 | 8 | 46 | 144 | 397 | 407 | 343
5 | DPAWQNCTWAAFHCELL | 0 | 0 | 1 | 0 | 0 | 10 | 52 | 194 | 158 | 163
6 | DPADTECILAAHFCHYF | 0 | 0 | 2 | 0 | 0 | 1 | 39 | 81 | 78 | 49
7 | DPATWHCDWAAEHCELL | 0 | 0 | 0 | 0 | 2 | 10 | 81 | 147 | 203 | 280
8 | DPAALSCYQAAFHCQYY | 0 | 0 | 0 | 0 | 0 | 0 | 1 | 5 | 14 | 17
9 | DPAQSDCDWAAEHCNLI | 0 | 0 | 0 | 0 | 0 | 1 | 0 | 23 | 9 | 57
10 | DPAYTYCQWAAEHCSLL | 2 | 2 | 2 | 1 | 5 | 5 | 3 | 88 | 115 | 137
11 | DPAEVECMLAAHVCRAF | 0 | 0 | 0 | 0 | 8 | 26 | 67 | 109 | 142 | 130
12 | DPAVIACYDAAFVCEYF | 0 | 0 | 1 | 0 | 0 | 0 | 0 | 0 | 3 | 3
